Assays:
[1] = target: the molecule itself; test: time-dependent loss of NMR signal (self-association/aggregation); synthetic Nup98 peptides alone in solution; propensity = difference between the NMR signal expected for the peptide concentration and that observed after 1 day of incubation at 5 °C (Fig. 2c); kinetics of 95-124 and its mutants in Supplementary Fig. 5
[2] = target: the molecule itself; test: cryo-EM structure; amyloid fibrils of Nup98^FG85: peptide dissolved in pure water at 1.5 mM, incubated at 25 °C for 1 h; helical reconstruction of four polymorphs (pm1-pm4)
[3] = target: the molecule itself; test: aggregation of NMR assignment samples; 2 mM peptide in 50 mM sodium phosphate, 0.01% NaN3, 5% D2O, pH 6.8; NMR at 5 °C
[4] = target: the molecule itself; test: loss of 1D 1H NMR signal on change of pH; Nup98^FG (200 μM) or Nup98^FG85 (100 μM) in 50 mM sodium phosphate, 1 mM TCEP, 0.01% NaN3, 5% D2O; pH 3, adjusted to pH 7, then back to pH 3 and 30 min at 65 °C

B1: Nup98(95–124) peptide (peptide, UniProt P52948 95-124, looked up)
peptide: Ac-ASTGTSLFSSQNNAFAQNKPTGFGNFGTST-NH2
notes: source: synthetic peptide (solid-phase synthesis, Genscript)
binding result [1]: binds

B2: Nup98^FG85 (residues 85–124 of human Nup98) (peptide, UniProt P52948 85-124, looked up)
peptide: TGTANTLFGTASTGTSLFSSQNNAFAQNKPTGFGNFGTST
notes: It forms amyloid fibrils of indefinite length with 3 (pm1) or 2 (pm2-pm4) protofilaments; also called Nup98^FG85 segment; source: synthetic peptide (solid-phase synthesis, Genscript)
binding result [2]: binds

B3: Nup98(298–327) peptide (peptide, UniProt P52948 298-327, looked up)
peptide: Ac-TGFSFGNTSTIGQPSTNTMGLFGVTQASQP-NH2
notes: human nucleoporin 98 (Nup98), residues 298-327; source: synthetic peptide (solid-phase synthesis, Genscript)
binding result [3]: binds

B4: Nup98(95–124) peptide with F117 and F120 replaced by serine (peptide, UniProt P52948 95-124, looked up)
peptide: ASTGTSLFSSQNNAFAQNKPTGSGNSGTST
notes: also called phenylalanine-to-serine mutant peptide; source: synthetic peptide (solid-phase synthesis, Genscript)
binding result [1]: binds

B5: Nup98(95–124) peptide with Q105 and Q111 replaced by serine (peptide, UniProt P52948 95-124, looked up)
peptide: ASTGTSLFSSSNNAFASNKPTGFGNFGTST
notes: also called glutamine-to-serine mutant peptide; source: synthetic peptide (solid-phase synthesis, Genscript)
binding result [1]: binds

B6: FG-repeat domain of human Nup98 (Nup98^FG, residues 1–384) (domain or fragment, UniProt P52948 1-384, looked up)
chain: MFNKSFGTPFGGGTGGFGTTSTFGQNTGFGTTSGGAFGTSAFGSSNNTGGLFGNSQTKPGGLFGTSSFSQPATSTSTGFGFGTSTGTANTLFGTASTGTSLFSSQNNAFAQNKPTGFGNFGTSTSSGGLFGTTNTTSNPFGSTSGSLFGPSSFTAAPTGTTIKFNPPTGTDTMVKAGVSTNISTKHQCITAMKEYESKSLEELRLEDYQANRKGPQNQVGAGTTTGLFGSSPATSSATGLFSSSTTNSGFAYGQNKTAFGTSTTGFGTNPGGLFGQQNQQTTSLFSKPFGQATTTQNTGFSFGNTSTIGQPSTNTMGLFGVTQASQPGGLFGTATNTSTGTAFGTGTGLFGQTNTGFGAVGSTLFGNNKLTTFGSSTTSAPSFG
notes: human nucleoporin 98 (Nup98), amino-terminal 384 residues (FG-repeat domain), in pET28a between NheI and XhoI; The methods describe no step that cleaves the His tag; also called 384-residue Nup98^FG domain; source: E. coli BL21(DE3), purified from the pellet in urea (Ni-NTA, two SEC steps)
binding result [4]: binds

B7: Nup98(345–384) peptide (peptide, UniProt P52948 345-384, looked up)
peptide: Ac-TGTGLFGQTNTGFGAVGSTLFGNNKLTTFGSSTTSAPSFG-NH2
notes: human nucleoporin 98 (Nup98), residues 345-384; source: synthetic peptide (solid-phase synthesis, Genscript)
binding result [3]: binds

From publication PMC9630130, “Molecular interactions of FG nucleoporin repeats at high resolution” (Nature Chemistry, 2022)
